The record followed here is US20230105029A1 (CHIA TAI TIANQING PHARMACEUTICAL GROUP, published 2023).

Where two headings read alike, the source gives them in different places.

A word on the Kd: it is the equilibrium constant for the complex coming apart. The koff is the first-order rate constant of dissociation. As usually defined, the kon is a measure of how fast the partners come together. One may read the EC50 as the midpoint of the concentration-response curve. The IC50 is the concentration that inhibits the measured activity by half.

In assay [1] the target is T1, recombinant human IL4Rα-his protein (in house made) (human, UniProt P24394 26-232, limits assumed).
T1 construct: also called Human IL4Ra-his
As to the kind of experiment: SPR (Biacore), antibody captured, IL4Rα-his flowed. In general terms: SPR reads the build-up and loss of mass on a sensor chip optically.

The target in assay [2] is T2, marmoset monkey IL4Rα-his protein (marmoset monkey).
T2 construct: Custom made by Sino biological; no cleavage site stated; also called cal-IL4Rα-his; Cal-IL4Rα
T2 chain: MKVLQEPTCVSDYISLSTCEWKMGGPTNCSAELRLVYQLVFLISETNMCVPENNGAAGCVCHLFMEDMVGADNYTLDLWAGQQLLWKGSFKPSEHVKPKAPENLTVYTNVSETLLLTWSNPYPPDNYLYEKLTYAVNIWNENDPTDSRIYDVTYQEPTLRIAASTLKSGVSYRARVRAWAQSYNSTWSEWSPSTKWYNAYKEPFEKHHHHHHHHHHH
The assay can be described thus: indirect ELISA on coated cal-IL4Rα-his. On the technique in general: An ELISA detects its analyte on a solid surface through an enzyme-linked reagent.

Assay [3] deals with T2, marmoset monkey IL4Rα-his protein. The assay can be described thus: indirect ELISA, coated cal-IL4Rα-his.
Assay [4] concerns the target T1, recombinant human IL4Rα-his protein (in …). The assay can be described thus: competitive ELISA, blocks biotin-IL4Rα-his binding to coated Benchmark (competitor). How it is done:
The ability of the anti-IL4Rα antibodies of the disclosure to block benchmark-human IL4Rα binding was measured in a competitive ELISA assay. Briefly, the benchmark was coated on 96-well micro plates at 2 μg/mL in PBS, 100 μl per well, and incubated overnight at 4° C. The next day, plates were washed with wash buffer (PBS+0.05% w/v Tween-20, PBST), and blocked with 5% w/v non-fatty milk in PBST for 2 hours at 37° C. tiring plate blocking, the anti-IL4Rα antibodies of the disclosure or controls were diluted with biotin labeled human IL4Rα-his proteins (prepared in-house with SEQ ID NO: 57, 0.55 nM in 2.5% w/v non-fatty milk in PBST), starting at 100 nM with a 4-fold serial dilution, and incubated at 25° C. for 40 minutes. After plate washing, the antibody/IL4Rα-his mixtures were added to benchmark coated plates, 100 μl per well. After incubation at 37° C. for 40 minutes, plates were washed using wash buffer. Then the plates were added and incubated with 100 μl/well streptavidin conjugated HRP for 40 minutes at 37° C. to detect biotin-labeled human IL4Rα-his bound to plates. Plates were washed again using wash buffer. Finally, TMB was added and the reaction was stopped using 1M H₂SO₄, and the absorbance was read at 450 nm. Data was analyzed using Graphpad Prism software and IC₅₀ values were reported.

Assay [5] deals with T3, human IL4Rα expressed on 293F-IL4Rα cells (human, UniProt P24394 26-825).
T3 construct: whole, on cells; also called cell surface human IL4Rα
As to the kind of experiment: flow cytometry, blocks biotin-IL4 binding to 293F-IL4Rα cells. As for the experimental part: Then, 1×10⁵ cells per well in 96 well-plates were incubated in 100 μL of the anti-IL4Rα antibodies or controls of various concentrations (starting at 80 nM with a 4-fold serial dilution) in FACS buffer for 40 minutes on ice. The plates were washed twice with FACS buffer, and added and incubated for 40 minutes at 4° C. in dark with 100 μl/well 1.67 nM biotin-labeled human IL4 protein (Sino biological inc., Cat #11846-HNAE). The plates were washed twice with FACS buffer, and then added and incubated for 40 minutes at 4° C. in dark with 100 μl/well R-Phycoerythrin Streptavidin (1:500 dilution in FACS buffer, Jackson Immunoresearch, Cat #016-110-084). Cells were washed twice and resuspended in FACS buffer. Fluorescence was measured using a Becton Dickinson FACS Canto II-HTS equipment. Data was analyzed using Graphpad Prism software and IC₅₀ values were reported.

The target in assay [6] is human IL4Rα expressed on HEK293T-IL4Rα-STAT6-STAT6LUC-LB2 cells (human, UniProt P24394 26-825). The assay can be described thus: cell-based or functional assay.
Assay [7] addresses T3, human IL4Rα expressed on 293F-IL4Rα …. As to the kind of experiment: flow cytometry on 293F-IL4Rα cells. On the technique in general: Flow cytometry measures light scatter and fluorescence of single cells or particles in a stream.
The target is the same in assay [8]. As to the kind of experiment: flow cytometry, 293F-IL4Rα cells. How it is done: Then, 2×10⁵ cells per well in 96 well-plates were incubated in 100 μL of the anti-IL4Rα antibodies or controls of various concentrations (starting at 80 nM with a 4-fold serial dilution) in FACS buffer for 40 minutes on ice. […] Following an incubation of 40 minutes at 4° C. in dark, cells were washed three times and resuspended in FACS buffer. Fluorescence was measured using a Becton Dickinson FACS Canto II-HTS equipment. Data was analyzed using Graphpad Prism software and EC₅₀ values were reported.

Assay [9] addresses T1, recombinant human IL4Rα-his protein (in …). As to the kind of experiment: SPR (Biacore), antibody captured, IL4Rα-his flowed. The source holds these as a separate data set.
For assay [10] the target is unchanged. As to the kind of experiment: capture ELISA, biotin-IL4Rα-his.
Assay [11] deals with T3, human IL4Rα expressed on 293F-IL4Rα …. The assay can be described thus: flow cytometry on 293F-IL4Rα cells, blocked ligand biotin human IL4.
In assay [12] the target is T1, recombinant human IL4Rα-his protein (in …). The assay can be described thus: capture ELISA: antibody captured on anti-IgG Fc plate, biotin human IL4Rα-his detected.
Assay [13] shares this target. As to the kind of experiment: competitive ELISA: coated human IL4Rα-his, blocked ligand biotin human IL4.
Assay [14] deals with T4, cynomolgus monkey IL4Rα-his protein (cynomolgus monkey, UniProt A0A2K5V580 33-239).
T4 construct: Bought protein; also called Cynomolgus IL4Rα; Cyno-IL4Rα-his; not shown: his tag
The assay can be described thus: indirect ELISA on coated cynomolgus IL4Rα-his.

Assay [15] concerns the target T1, recombinant human IL4Rα-his protein (in …). The assay can be described thus: competitive ELISA: antibody mixed with biotin human IL4Rα-his, competitor plate-coated Benchmark.
For assay [16] the target is unchanged. The assay can be described thus: competitive ELISA, blocks biotin-IL4 binding to coated IL4Rα-his. As for the experimental part: Serially diluted anti-IL4Rα antibodies or the controls (starting at 80 nM with a 4-fold serial dilution) in 2.5% w/v non-fatty milk in PBST, 100 μl per well, were added to the IL4Rα bound plates, and incubated with the human IL4Rα-his proteins at 37° C. for 40 minutes. Plates were washed 4 times using wash buffer, and then added and incubated for 40 minutes at 37° C. with 100 μl/well of 0.56 nM biotin-labeled human IL4 protein (Sino biological inc., Cat #11846-HNAE). Plates were washed again using wash buffer. Thereafter, the plates were added with 100 μl/well of streptavidin conjugated HRP (1:10000 dilution in PBST buffer, Jackson Immunoresearch, Cat #016-030-084) and incubated for 40 minutes at 37° C. Plates were washed again using wash buffer. Finally, TMB was added and the reaction was stopped using 1M H₂SO₄, and the absorbance was read at 450 nm. Data was analyzed using Graphpad Prism software and IC₅₀ values were reported.

Assay [17] concerns the target T4, cynomolgus monkey IL4Rα-his protein. The assay can be described thus: indirect ELISA, coated cyno IL4Rα-his.

B1: huB8G11F2B7G5E8-V14 (antibody, human IgG4 S228P, kappa, V domains shown)
VH: EVQLVQSGAEVKKPGATVKISCKVSGFNIKDTYMHWVKQAPGKGLEWMGRIDPTNGYTIYASKFQGKATITADTSSNTAYMELSSLRSEDTAVYHCVSRRPWFAYWGQGTLVTVSS
VL: DIVMTQTPLSLSVTPGQPASISCRSSQSIVHSNGNTYLEWYLQKPGQSPQLLIYKVTNRFSGVPDRFSGSGSGTDFTLKISRVEAEDVGVYYCFQGSHVPYTFGQGTKLEIKR
notes: Humanized, human IgG4/kappa; also called huBSG11F2B7G5E8-V14
B1: the Kd in [1] is 3.69 nM; in assay [9] it was 3.88 nM. In addition, the koff in assay [1] came to 0.00113 s⁻¹. For the same molecule, in assay [1], the kon stood at 306000 M⁻¹ s⁻¹. Moreover, the EC50 amounted to 1.06 nM in assay [2]; 1.06 nM in assay [3]; 0.517 nM in assay [7]; 0.52 nM in [8]; 0.24 nM in [10]; 0.237 nM in [12]. Further, the EC50 in assay [14] and in assay [17] was 137 nM each time. The IC50 in [4] is 0.76 nM; in assay [5] it was 0.6 nM; in [11] it was 0.601 nM; in assay [13], 1.02 nM; in [15], 0.763 nM; in [16], 1.02 nM. Further, in assay [6], the “Inhibition on IL4 induced STAT6 phosphorylation (IC50, nM)” value worked out at 0.26 nM. In addition, in assay [6], the “Inhibition on IL13 induced STAT6 phosphorylation (IC50, nM)” value worked out at 0.66 nM.

B2: huB8G11F2B7G5E8-V2 (antibody, human IgG4 S228P, kappa, V domains shown)
VH: EVQLVQSGAEVKKPGATVKISCKVSGFNIKDTYMHWVKQAPGKGLEWVGRIDPTNGYTIYASKFQGKATITADTSSNTAYMELSSLRSEDTAVYHCVSRRPWFAYWGQGTLVTVSS
VL: DIVMTQTPLSLSVTPGQPASISCRSSQSIVHSNGNTYLEWYLQKPGQSPQLLIYKVTNRFSGVPDRFSGSGSGTDFTLKISRVEAEDVGVYYCFQGSHVPYTFGQGTKLEIKR
notes: Humanized, human IgG4/kappa; also called huBSG11F2B7G5E8-V2
As for B2, the Kd in assay [1] was 3.1 nM; in assay [9], 4.1 nM. In assay [1], the koff amounted to 0.00162 s⁻¹. The kon in assay [1] is 521000 M⁻¹ s⁻¹. In addition, the EC50 in assay [2] came to 0.799 nM; in [3], 0.8 nM; in [7], 0.426 nM; in assay [8] it was 0.43 nM; in [10] it was 0.27 nM; in assay [12], 0.274 nM. Further, the EC50 in [14] and in [17] was 914 nM each time. In addition, the IC50 in assay [4] turned out to be 1.2 nM; in assay [5], 0.54 nM; in assay [11], 0.538 nM; in assay [13] it was 1 nM; in assay [15], 1.2 nM; in assay [16], 1 nM. Also, the “Inhibition on IL4 induced STAT6 phosphorylation (IC50, nM)” value in [6] was found to be 0.4 nM. For the same molecule, the “Inhibition on IL13 induced STAT6 phosphorylation (IC50, nM)” value in [6] amounted to 0.63 nM.

B3: huB8G11F2B7G5E8-V4 (antibody, human IgG4 S228P, kappa, V domains shown)
VH: EVQLVQSGAEVKKPGATVKISCKASGFNIKDTYMHWVKQAPGKGLEWMGRIDPTNGYTIYASKFQGKATITADTSSNTAYMELSSLRSEDTAVYHCVSRRPWFAYWGQGTLVTVSS
VL: DIVMTQTPLSLSVTPGQPASISCRSSQSIVHSNGNTYLEWYLQKPGQSPQLLIYKVTNRFSGVPDRFSGSGSGTDFTLKISRVEAEDVGVYYCFQGSHVPYTFGQGTKLEIKR
notes: Humanized, human IgG4/kappa; also called huBSG11F2B7G5E8-V4
For B3, the Kd turned out to be 3.21 nM in [1] and 5.5 nM in assay [9]. Moreover, the off-rate constant (koff) in assay [1] came to 0.00185 s⁻¹. Besides, the kon in assay [1] is 577000 M⁻¹ s⁻¹. Further, the EC50 in assay [2] was 0.726 nM; in assay [3], 0.73 nM; in assay [7] it was 0.414 nM; in [8] it was 0.41 nM; in assay [10], 0.27 nM; in assay [12], 0.275 nM. The EC50 in [14] and in assay [17] was 7.12 nM in each case. Besides, the IC50 is 1.24 nM in [4]; 0.51 nM in [5]; 0.513 nM in assay [11]; 0.825 nM in assay [13]; 1.24 nM in assay [15]; 0.82 nM in assay [16]. In [6], the “Inhibition on IL4 induced STAT6 phosphorylation (IC50, nM)” value worked out at 0.3 nM. Further, the “Inhibition on IL13 induced STAT6 phosphorylation (IC50, nM)” value in assay [6] came out at 0.81 nM.
